# In patent US20110142842A1 (MEDINNOVA, published 2011):
# B1: Peptide ID 96 KMIMNSLSL (CD20) (peptide)
# peptide: KMIMNSLSL
# B2: Peptide ID 103 ELSEDSSNV (CD18) (peptide)
# peptide: ELSEDSSNV
# B3: Peptide ID 99 GMVFSLLQV (CD127) (peptide)
# peptide: GMVFSLLQV
# B4: Peptide ID 102 WLSAAPTSL (CD33) (peptide)
# peptide: WLSAAPTSL
# B5: Peptide ID 100 VLWPRACWT (CD50) (peptide)
# peptide: VLWPRACWT
# B6: Peptide ID 98 KLKDLFTEL (CD11a) (peptide)
# peptide: KLKDLFTEL
# B7: Peptide ID 9 GMDRYLIYV (CD18) (peptide)
# peptide: GMDRYLIYV
# B8: Peptide ID 95 RMPWYHSSL (ZAP-70) (peptide)
# peptide: RMPWYHSSL
# B9: Peptide ID 101 NVAELLHQV (ZAP-70) (peptide)
# peptide: NVAELLHQV
# B10: Peptide ID 104 LMSFFILLL (CD53) (peptide)
# peptide: LMSFFILLL
# B11: Peptide ID 97 TLWQLVEYL (ZAP-70) (peptide)
# peptide: TLWQLVEYL
# Biological target: HLA-A*0201 (human, UniProt A*02:01)
# Assay: REVEAL MHC binding assay (ProImmune)
row,Binder,% Pass/fail control
1,B1,213 % of pass/fail control
2,B2,139 % of pass/fail control
3,B3,175 % of pass/fail control
4,B4,207 % of pass/fail control
5,B5,139 % of pass/fail control
6,B6,171 % of pass/fail control
7,B7,170 % of pass/fail control
8,B8,85.6 % of pass/fail control
9,B9,200 % of pass/fail control
10,B10,161 % of pass/fail control
11,B11,198 % of pass/fail control
